Measurements from patent US20200283482A1, “BICYCLIC PEPTIDE LIGAND PRR-A CONJUGATES AND USES THEREOF” (BicycleRD Limited, priority 2017, published 2020).
Starred links: 1 amine or outer side, 2 acyl side, 3 side chain; linkers in the order of their positions; H or OH if unused. Positions of bridges follow the written chain, without caps; N, C: chain ends. Non-standard residues stand in square brackets, D forms with d. Residues, ends and D or L forms follow the SMILES beside them. *: point of attachment. X9 = CCOCc1nc2c(NC(=O)[C@H](CCCCNC(=O)OCc3ccc(NC(=O)[C@H](CCCNC(N)=O)NC(=O)[C@@H](NC(=O)Cn4cc(CCC(=O)*)nn4)C(C)C)cc3)NC(C)=O)nc3ccccc3c2n1CC(C)(C)O; X14 = CCCOc1nc(NC(=O)CCCNC(=O)OCc2ccc(NC(=O)[C@H](CCCNC(N)=O)NC(=O)[C@@H](NC(=O)Cn3cc(CCC(=O)*)nn3)C(C)C)cc2)c2[nH]c(=O)n(Cc3ccc(OCCN(C)C)nc3)c2n1; X13 = CCOCc1nc2c(NC(=O)N(C)CCN(C)C(=O)OCc3ccc(NC(=O)[C@H](CCCNC(N)=O)NC(=O)[C@@H](NC(=O)Cn4cc(CCC(=O)*)nn4)C(C)C)cc3)nc3ccccc3c2n1CC(C)(C)O; X16 = CCCOc1nc(NC(=O)CCCSSC(C)CCC(=O)*)c2[nH]c(=O)n(Cc3ccc(OCCN(C)C)nc3)c2n1; X15 = CCOCc1nc2c(NC(=O)CCCSSC(C)CCC(=O)*)nc3ccccc3c2n1CC(C)(C)O; Resiquimod = CCOCc1nc2c(N*)nc3ccccc3c2n1CC(C)(C)O; 1Nal = N[C@@H](Cc1cccc2ccccc12)C(=O)O; TBMB = c1c(C[*:1])cc(C[*:3])cc1C[*:2]; Glutaryl = O=C(CCCC(=O)[*:2])[*:1]; Tle = CC(C)(C)[C@H](N)C(=O)O; βAla = NCCC(=O)O; Sar = CNCC(=O)O

Legend:
Blood stability, mouse = assay type: in vitro ADME, CD-1 mouse; conditions: male
Protocol: CD-1 mouse blood (n≥2, male, fasted overnight) is collected from animals housed at an internal facility. (EDTA-K2 is used as anticoagulant)
The test compounds and positive control stock solutions are prepared to 10 mM in DMSO or ultrapure water. Control compounds bisacodyl, enalapril and propantheline known to be metabolised by blood are also incubated alongside each batch of test compounds I-7, I-22, I-24, I-25, I-27, and I-29 to I-33. The dosing solutions of test compounds and controls are prepared by diluting the stock solution with 45% MeOH/H2O to achieve 100 uM. Test compound solutions (final incubation concentration=2 μM) are incubated with blood (final DMSO concentration≤1%) at six different time points (0, 1, 2, 4, 6 and 24 hours) in duplicate (n=2). The reaction is terminated by adding 100 uL ultra-pure water, mixing well, then adding 800 uL of 100% methanol containing 200 ng/mL tolbutamide and 200 ng/mL labetalol as internal standards. Samples are then vortexed and centrifuged at 3200×g for 20 minutes. Following centrifugation, the concentration of test compound in the supernatant is determined semi-quantitatively by LC-MS/MS. The percentage of test compound remaining at the individual time points relative to the 0 hour sample is then reported. The percent remaining of test compound after incubation in blood is calculated using following equation: Percent Remaining=100×(PAR at appointed incubation time/PAR at T0 time) where PAR is the peak area ratio of analyte versus internal standard (IS).

Plasma stability, human = assay type: in vitro ADME; conditions: human, plasma, pH 7.4
Protocol: (§1) The pooled frozen mouse, rat, dog, monkey or human plasma is thawed in a water bath at 37° C. prior to experiment. Plasma is centrifuged at 4000 rpm for 5 min and the clots are removed if any. […] For positive controls, 100 μM intermediate solution is prepared by diluting 20 μL of the stock solution with 180 μL 45% MeOH/H2O. […] For compounds I-7 to […]-17, […]-22, and […]-33, at each time point (0, 1, 2, 4, 6 and 24 hr), reactions were stopped by removing the plates from water bath and 200 μL 20 mM NH4OAC mix well first and then adding 800 μL of ice-cold stop solution (200 ng/mL Labetalol, 200 ng/mL Tolbutamide, 500 ng/mL N6-Ben and 40 mM DBAA in 100% Methanol). […] Sample plates were vortexed immediately on a plate shaker at 800 rpm for 10 min and then centrifuged at 4,000 rpm for 10 min. An aliquot of supernatant (200 μL) is transferred from each well before submitting to LC-MS/MS analysis. The percentage of test compound remaining at the individual time points relative to the 0 hour sample is calculated using following equation: Percent Remaining=100×(PAR at appointed incubation time/PAR at T0 time) where PAR is the peak area ratio of analyte versus internal standard (IS).

Plasma stability, cyno = assay type: in vitro ADME; conditions: cynomolgus monkey, plasma, pH 7.4
Protocol: as §1

Plasma stability, rat = assay type: in vitro ADME; conditions: rat, plasma, pH 7.4
Protocol: as §1

Plasma stability, mouse = assay type: in vitro ADME; conditions: mouse, plasma, pH 7.4
Protocol: as §1

Compound | half-life at 2 μM (Blood stability, mouse; CD-1, mouse) | half-life at 2 μM (Plasma stability, human) | half-life at 2 μM (Plasma stability, cyno) | half-life at 2 μM (Plasma stability, rat) | half-life at 2 μM (Plasma stability, mouse) | half-life at 2 μM (Blood stability, mouse; CD-1 mouse blood, 2 μM, read-out: T1/2 (mouse))
CCOCc1nc2c(NC(=O)N(C)CCN(C)C(=O)OCc3ccc(NC(=O)[C@H](CCCNC(N)=O)NC(=O)[C@@H](NC(=O)Cn4cc(CCC(=O)NCCC(=O)N(C)CC(=O)N(C)CC(=O)N(C)CC(=O)N(C)CC(=O)N(C)CC(=O)N(C)CC(=O)N(C)CC(=O)N(C)CC(=O)N(C)CC(=O)N(C)CC(=O)N[C@@H](C)C(=O)N[C@H]5CSCc6cc7cc(c6)CSC[C@H](NC(=O)[C@@H](C)NC(=O)[C@H](Cc6cccc8ccccc68)NC(=O)[C@H](CCC(=O)O)NC(=O)[C@H](CC(N)=O)NC(=O)[C@@H](C)NC5=O)C(=O)N[C@@H](CCC(=O)O)C(=O)N[C@@H](CC(=O)O)C(=O)N[C@@H](Cc5ccccc5)C(=O)N[C@@H](Cc5ccc(O)cc5)C(=O)N[C@@H](CC(=O)O)C(=O)N[C@@H](C(C)(C)C)C(=O)N[C@H](C(N)=O)CSC7)nn4)C(C)C)cc3)nc3ccccc3c2n1CC(C)(C)O [1-31] ({X13-βAla}-[Sar][Sar][Sar][Sar][Sar][Sar][Sar][Sar][Sar][Sar]AC[dA]NE[1Nal][dA]CEDFYD[Tle]C-NH2; linker 12-18-25 via TBMB) | 6 to 24 h | – | – | – | – | –
CCCOc1nc(NC(=O)CCCSSC(C)CCC(=O)NCCC(=O)N(C)CC(=O)N(C)CC(=O)N(C)CC(=O)N(C)CC(=O)N(C)CC(=O)N(C)CC(=O)N(C)CC(=O)N(C)CC(=O)N(C)CC(=O)N(C)CC(=O)N[C@@H](C)C(=O)N[C@H]2CSCc3cc4cc(c3)CSC[C@H](NC(=O)[C@@H](C)NC(=O)[C@H](Cc3cccc5ccccc35)NC(=O)[C@H](CCC(=O)O)NC(=O)[C@H](CC(N)=O)NC(=O)[C@@H](C)NC2=O)C(=O)N[C@@H](CCC(=O)O)C(=O)N[C@@H](CC(=O)O)C(=O)N[C@@H](Cc2ccccc2)C(=O)N[C@@H](Cc2ccc(O)cc2)C(=O)N[C@@H](CC(=O)O)C(=O)N[C@@H](C(C)(C)C)C(=O)N[C@H](C(N)=O)CSC4)c2[nH]c(=O)n(Cc3ccc(OCCN(C)C)nc3)c2n1 (stereo partly drawn) [I-23] ({X16-βAla}-[Sar][Sar][Sar][Sar][Sar][Sar][Sar][Sar][Sar][Sar]AC[dA]NE[1Nal][dA]CEDFYD[Tle]C-NH2; linker 12-18-25 via TBMB) | – | < 2 h | < 2 h | < 2 h | < 2 h | –
CCOCc1nc2c(NC(=O)[C@H](CCCCNC(=O)OCc3ccc(NC(=O)[C@H](CCCNC(N)=O)NC(=O)[C@@H](NC(=O)Cn4cc(CCC(=O)NCCC(=O)N(C)CC(=O)N(C)CC(=O)N(C)CC(=O)N(C)CC(=O)N(C)CC(=O)N(C)CC(=O)N(C)CC(=O)N(C)CC(=O)N(C)CC(=O)N(C)CC(=O)N[C@@H](C)C(=O)N[C@H]5CSCc6cc7cc(c6)CSC[C@H](NC(=O)[C@@H](C)NC(=O)[C@H](Cc6cccc8ccccc68)NC(=O)[C@H](CCC(=O)O)NC(=O)[C@H](CC(N)=O)NC(=O)[C@@H](C)NC5=O)C(=O)N[C@@H](CCC(=O)O)C(=O)N[C@@H](CC(=O)O)C(=O)N[C@@H](Cc5ccccc5)C(=O)N[C@@H](Cc5ccc(O)cc5)C(=O)N[C@@H](CC(=O)O)C(=O)N[C@@H](C(C)(C)C)C(=O)N[C@H](C(N)=O)CSC7)nn4)C(C)C)cc3)NC(C)=O)nc3ccccc3c2n1CC(C)(C)O [I-24] ({X9-βAla}-[Sar][Sar][Sar][Sar][Sar][Sar][Sar][Sar][Sar][Sar]AC[dA]NE[1Nal][dA]CEDFYD[Tle]C-NH2; linker 12-18-25 via TBMB) | 6 to 24 h | > 24 h | > 24 h | 6 to 24 h | 6 to 24 h | –
CCOCc1nc2c(NC(=O)CCCC(=O)NCCC(=O)N(C)CC(=O)N(C)CC(=O)N(C)CC(=O)N(C)CC(=O)N(C)CC(=O)N(C)CC(=O)N(C)CC(=O)N(C)CC(=O)N(C)CC(=O)N(C)CC(=O)N[C@@H](C)C(=O)N[C@H]3CSCc4cc5cc(c4)CSC[C@H](NC(=O)[C@@H](C)NC(=O)[C@H](Cc4cccc6ccccc46)NC(=O)[C@H](CCC(=O)O)NC(=O)[C@H](CC(N)=O)NC(=O)[C@@H](C)NC3=O)C(=O)N[C@@H](CCC(=O)O)C(=O)N[C@@H](CC(=O)O)C(=O)N[C@@H](Cc3ccccc3)C(=O)N[C@@H](Cc3ccc(O)cc3)C(=O)N[C@@H](CC(=O)O)C(=O)N[C@@H](C(C)(C)C)C(=O)N[C@H](C(N)=O)CSC5)nc3ccccc3c2n1CC(C)(C)O [I-25] ({Resiquimod-Glutaryl-βAla}-[Sar][Sar][Sar][Sar][Sar][Sar][Sar][Sar][Sar][Sar]AC[dA]NE[1Nal][dA]CEDFYD[Tle]C-NH2; linker 12-18-25 via TBMB) | – | > 24 h | > 24 h | > 24 h | > 24 h | > 24 h
CCCOc1nc(NC(=O)CCCNC(=O)OCc2ccc(NC(=O)[C@H](CCCNC(N)=O)NC(=O)[C@@H](NC(=O)Cn3cc(CCC(=O)NCCC(=O)N(C)CC(=O)N(C)CC(=O)N(C)CC(=O)N(C)CC(=O)N(C)CC(=O)N(C)CC(=O)N(C)CC(=O)N(C)CC(=O)N(C)CC(=O)N(C)CC(=O)N[C@@H](C)C(=O)N[C@H]4CSCc5cc6cc(c5)CSC[C@H](NC(=O)[C@@H](C)NC(=O)[C@H](Cc5cccc7ccccc57)NC(=O)[C@H](CCC(=O)O)NC(=O)[C@H](CC(N)=O)NC(=O)[C@@H](C)NC4=O)C(=O)N[C@@H](CCC(=O)O)C(=O)N[C@@H](CC(=O)O)C(=O)N[C@@H](Cc4ccccc4)C(=O)N[C@@H](Cc4ccc(O)cc4)C(=O)N[C@@H](CC(=O)O)C(=O)N[C@@H](C(C)(C)C)C(=O)N[C@H](C(N)=O)CSC6)nn3)C(C)C)cc2)c2[nH]c(=O)n(Cc3ccc(OCCN(C)C)nc3)c2n1 [I-26] ({X14-βAla}-[Sar][Sar][Sar][Sar][Sar][Sar][Sar][Sar][Sar][Sar]AC[dA]NE[1Nal][dA]CEDFYD[Tle]C-NH2; linker 12-18-25 via TBMB) | – | < 2 h | < 2 h | < 2 h | < 2 h | –
CCOCc1nc2c(NC(=O)CCCSSC(C)CCC(=O)NCCC(=O)N(C)CC(=O)N(C)CC(=O)N(C)CC(=O)N(C)CC(=O)N(C)CC(=O)N(C)CC(=O)N(C)CC(=O)N(C)CC(=O)N(C)CC(=O)N(C)CC(=O)N[C@@H](C)C(=O)N[C@H]3CSCc4cc5cc(c4)CSC[C@H](NC(=O)[C@@H](C)NC(=O)[C@H](Cc4cccc6ccccc46)NC(=O)[C@H](CCC(=O)O)NC(=O)[C@H](CC(N)=O)NC(=O)[C@@H](C)NC3=O)C(=O)N[C@@H](CCC(=O)O)C(=O)N[C@@H](CC(=O)O)C(=O)N[C@@H](Cc3ccccc3)C(=O)N[C@@H](Cc3ccc(O)cc3)C(=O)N[C@@H](CC(=O)O)C(=O)N[C@@H](C(C)(C)C)C(=O)N[C@H](C(N)=O)CSC5)nc3ccccc3c2n1CC(C)(C)O (stereo partly drawn) [I-28] ({X15-βAla}-[Sar][Sar][Sar][Sar][Sar][Sar][Sar][Sar][Sar][Sar]AC[dA]NE[1Nal][dA]CEDFYD[Tle]C-NH2; linker 12-18-25 via TBMB) | – | < 2 h | 2 to 6 h | < 2 h | < 2 h | –
CCOCc1nc2c(NC(=O)N(C)CCN(C)C(=O)OCc3ccc(NC(=O)[C@H](CCCNC(N)=O)NC(=O)[C@@H](NC(=O)Cn4cc(CCC(=O)NCCC(=O)N(C)CC(=O)N(C)CC(=O)N(C)CC(=O)N(C)CC(=O)N(C)CC(=O)N(C)CC(=O)N(C)CC(=O)N(C)CC(=O)N(C)CC(=O)N(C)CC(=O)N[C@@H](C)C(=O)N[C@H]5CSCc6cc7cc(c6)CSC[C@H](NC(=O)[C@@H](C)NC(=O)[C@H](Cc6cccc8ccccc68)NC(=O)[C@H](CCC(=O)O)NC(=O)[C@H](CC(N)=O)NC(=O)[C@@H](C)NC5=O)C(=O)N[C@@H](CCC(=O)O)C(=O)N[C@@H](CC(=O)O)C(=O)N[C@@H](Cc5ccccc5)C(=O)N[C@@H](Cc5ccc(O)cc5)C(=O)N[C@@H](CC(=O)O)C(=O)N[C@@H](C(C)(C)C)C(=O)N[C@H](C(N)=O)CSC7)nn4)C(C)C)cc3)nc3ccccc3c2n1CC(C)(C)O [I-31] ({X13-βAla}-[Sar][Sar][Sar][Sar][Sar][Sar][Sar][Sar][Sar][Sar]AC[dA]NE[1Nal][dA]CEDFYD[Tle]C-NH2; linker 12-18-25 via TBMB) | – | > 24 h | > 24 h | > 24 h | > 24 h | –
